# Measurements reported in paper PMC4228979, “Conserved cis-regulatory modules in promoters of genes encoding wheat high-molecular-weight glutenin subunits”.
# T1: His-SPA (Storage Protein Activator, bZIP) (UniProt A0A9R1IS55 1-409)
# T1 sequence: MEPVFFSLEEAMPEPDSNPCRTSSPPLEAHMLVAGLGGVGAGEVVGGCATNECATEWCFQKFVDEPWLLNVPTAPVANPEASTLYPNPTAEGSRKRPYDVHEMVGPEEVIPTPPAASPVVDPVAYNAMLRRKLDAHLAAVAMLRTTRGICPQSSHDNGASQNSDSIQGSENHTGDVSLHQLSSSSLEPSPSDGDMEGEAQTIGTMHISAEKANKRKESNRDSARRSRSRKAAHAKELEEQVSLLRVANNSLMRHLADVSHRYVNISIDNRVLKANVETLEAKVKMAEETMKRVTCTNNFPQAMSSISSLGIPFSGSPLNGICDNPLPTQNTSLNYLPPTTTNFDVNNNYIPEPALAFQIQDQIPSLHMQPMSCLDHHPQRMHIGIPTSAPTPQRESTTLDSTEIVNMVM
# Target: T1, His-SPA (Storage Protein Activator, …)
# Assay: EMSA; 10 mM Tris pH 7.5, 100 mM KCl, 2 mM DTT, 2 mM EDTA, 10% glycerol, 0.05% nonyl phenoxypolyethoxylethanol, 0.5 mM PMSF, 100 ng/uL poly(dI.dC), 250 ng/uL fish sperm DNA; 20 fmol probe, 560 ng-4 ug protein in 20 uL; 30 min, room temperature; gel at 4 C
# Details: protein: recombinant; tags: His tag (pDEST17); chain copies: 2; label: 3' biotin on each strand; blunt
row,Binder,binding result
1,glm1 (dsDNA) DNA 1: ATAGATGTTTTTATTAATTGGATAG DNA 2: CTATCCAATTAATAAAAACATCTAT,no binding
2,mutated G-box (dsDNA) DNA 1: GCCCATTCTCTGGCTTTAGCAGACC DNA 2: GGTCTGCTAAAGCCAGAGAATGGGC,no binding
3,GLM2 (-626) (dsDNA) DNA 1: ATAGATATTGTGAGTCAGCATGGAT DNA 2: ATCCATGCTGACTCACAATATCTAT,binds
